Substitutions are numbered along the chain they refer to.
Target: human EPH receptor A5 (EphA5) expressed on cells (human) (UniProt P54756)
Assay: high-throughput flow cytometry, HEK293T cells expressing wild-type EPHA5 versus vector alone, Fab at 0.50 µg/ml

Chain of human EPH receptor A5 (EphA5) expressed on cells (human) (P54756 25-1037 limits assumed): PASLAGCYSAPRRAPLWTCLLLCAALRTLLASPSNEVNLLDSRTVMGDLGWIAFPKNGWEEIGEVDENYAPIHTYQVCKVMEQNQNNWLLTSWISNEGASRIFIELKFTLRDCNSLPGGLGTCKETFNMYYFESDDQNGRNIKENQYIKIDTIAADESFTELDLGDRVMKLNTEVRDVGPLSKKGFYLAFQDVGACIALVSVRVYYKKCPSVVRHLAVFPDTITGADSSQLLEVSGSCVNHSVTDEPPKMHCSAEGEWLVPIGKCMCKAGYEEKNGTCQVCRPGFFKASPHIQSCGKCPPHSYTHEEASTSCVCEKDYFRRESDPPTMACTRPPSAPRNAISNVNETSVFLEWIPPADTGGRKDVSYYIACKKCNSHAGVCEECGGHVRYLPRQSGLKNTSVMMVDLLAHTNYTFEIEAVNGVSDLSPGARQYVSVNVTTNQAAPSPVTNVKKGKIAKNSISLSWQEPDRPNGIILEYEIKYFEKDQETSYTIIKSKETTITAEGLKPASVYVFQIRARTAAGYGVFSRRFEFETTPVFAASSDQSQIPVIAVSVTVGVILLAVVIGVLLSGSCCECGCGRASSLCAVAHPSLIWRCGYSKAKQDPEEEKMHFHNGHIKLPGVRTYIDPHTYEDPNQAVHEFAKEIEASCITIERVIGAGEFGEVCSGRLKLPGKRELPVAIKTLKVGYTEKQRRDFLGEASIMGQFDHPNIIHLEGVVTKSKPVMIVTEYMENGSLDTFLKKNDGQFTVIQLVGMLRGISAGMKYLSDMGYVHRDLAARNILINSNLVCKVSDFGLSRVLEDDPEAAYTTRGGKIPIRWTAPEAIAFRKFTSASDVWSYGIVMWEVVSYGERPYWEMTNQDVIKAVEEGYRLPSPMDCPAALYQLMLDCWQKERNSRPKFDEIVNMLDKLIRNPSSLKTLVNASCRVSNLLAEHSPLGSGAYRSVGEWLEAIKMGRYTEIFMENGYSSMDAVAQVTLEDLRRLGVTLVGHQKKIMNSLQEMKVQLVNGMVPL

B1: Fab derived from the H5K3 antibody (Fab, part only; not given: CH1 and upper hinge limits, V domains shown, not shown: another chain or arm of the molecule; a dimerising Fc or GST)
VH: EVQLVESGGGLVQPGGSLKLSCAASGFTFSTFGIHWVRQAPGKGLEWVAYISGASTTIYYADSVKGRFTISRDNSKNTLYLQMNSLRAEDTAVYYCARYGTSFPYGLDYWGQGTLVTVSS
VL: DIVMTQSPDSLAVSLGERATINCKASQSVDYDGDSYMNWYQQKPGKAPKLLIYGASNLESGIPDRFSGSGSGTDFTLTISRLEPEDAAVYYCQQSNEDPFTFGQGTKLEIK
With B1 the Signal:Background was 70.

B2: Fab derived from the H4K3 antibody (Fab, part only; not given: CH1 and upper hinge limits, V domains shown, not shown: another chain or arm of the molecule; a dimerising Fc or GST)
VH: B1 VH with S63T
VL: B1 VL
B2 showed a Signal:Background of 66.

Source: patent US20240115722A1
